From patent US9395368B2, “Methods, agents and peptides for inducing an immune response to matrix metalloproteinase-2 expressing tumors” (New York University, priority 2010, dated 2016)

Columns and labels:
[1] = tested on: Cord blood-derived CD4+/CD25- cells; assay: Priming of naive cord blood CD4+ T cells with autologous CD4- cells loaded with different sources of MMP-2; format: cell-based, human
Description: Cord blood-derived CD4^+/CD25^− cells from 11 donors were stimulated with irradiated autologous CD4^− cells loaded either with active MMP-2, heat-inactivated (HI) MMP-2 or with MMP-2 pre-incubated with a specific inhibitor (+I). After 15 days, CD4^+ T cells were stimulated with the MMP-2 peptide pool (2 μM) for 6 h before intracellular staining of cytokines. (A) Density plots representing cytokine production by CD4^+ T cells are shown for the representative donor CB35 primed to MMP-2 either in its active form or after heat-inactivation. Numbers indicate percentages of cytokine-producing cells upon MMP-2 peptide stimulation. […] MMP-2 enzymatic activity was controlled (FIG. 13C-D). For each cytokine, 3 paired t-tests were used to compare active MMP-2 to heat inactivated MMP-2, to MMP-2+I, and to MMP-2 peptides. P values≦0.0167 (*) were considered statistically significant using a Bonferroni correction for 3 comparisons.
T Cell culture, stimulation and priming. Peripheral blood mononuclear cells (PBMCs) were purified from healthy donor-(HD) or cord blood donor-(CB) derived buffy coats (New York Blood Center) by Ficoll-Paque Plus (GE Healthcare) centrifugation. CD4^+/CD25^− cells were enriched (>90%) by magnetic cell sorting (Miltenyi Biotec) and primed/stimulated for 12-15 days either with irradiated (35Gy) autologous CD4^− cells or with autologous mature DCs in IMDM (GIBCO) supplemented with 1 mM HEPES (Life Technologies), 2 mM L-glutamine (Sigma), streptomycin (100 UI/mL)/penicillin (100 μg/mL) (Sigma) and 5% heat inactivated pooled human serum (PHS; Valley Biomedical) in the presence of rhIL-2 (10 UI/mL) and IL7 (5 ng/mL) (R&D Systems). Antigen presenting cells (CD4^− cells or DCs) were loaded either with peptides (2 μM) or with the MMP-2 protein (10 μg/mL) for 2 and 5 h, respectively. DCs were matured using the TLR3 agonist poly(I:C) at 5 μg/mL/10^6 DCs (Amersham). To generate T cell clones, we originally relied on our published methodology (Godefroy et al., 2006; Godefroy et al., 2007; the entire contents of each of which is incorporated herein by reference), involving enrichment of IFNγ-secreting cells upon short-term culture and peptide stimulation to generate MMP-2 responsive clones. Briefly, CD4^+ T cells were stimulated by CD4^− cells irradiated and pulsed with peptides for 12 days in the presence of rhIL-2 and rhIL-7. CD4^+ T cells were then restimulated with peptides for 3 hours before capturing IFNγ-secreting specific cells using a bispecific antibody coating T cells and capturing produced IFNγ. Positive cells were purified magnetically before being cloned. Although MMP-2-specific cells could be isolated, it was realized that IFNγ secretion was marginal compared to their secretion of IL-4 and TNFα. IFNγ-secreting cells in response to MMP-2 peptide pool were enriched by cytokine-guided magnetic cell sorting (Miltenyi Biotec) as described above and cloned the following day by limiting dilution in the presence of irradiated allogeneic PBMCs, 1 μg/mL phytohemagglutinin-L (Sigma) and 150 UI/mL rhIL-2. Tumor infiltrating lymphocytes (TILs) were provided by Pr. F. Jotereau and B. Dréno. They were obtained from tumor-invaded lymph nodes of melanoma patients (stage Mb) and expanded ex vivo. These patients received autologous TILs and IL-2 infusions in a clinical trial (Labarriere et al., 2002). This protocol was approved by the Institutional Ethics Committee and registered with regulatory state authority in France (Nantes).
Intracellular staining T-bet and GATA-3 expression was measured on resting T cells. Cells were fixed (4% paraformaldehyde for 10 min at RT), permeabilized with 0.1% saponin, and stained for intracellular transcription factors. Cytokine production by T cells was also assessed by intracellular staining T cells were stimulated with 2 μM overlapping peptides. After 1 h, 10 μg/mL brefeldin A was added to the cells. […]

human basophils = assay: Basophil activation by MMP-2 (IL-4, TSLP, CD203c); format: cell-based

B1: active MMP-2: Purified human MMP-2 (mixture of the proenzyme (50%) and the active form (50%)) purchased from Biomol (protein, listed as Homo sapiens)
chain: MEALMARGALTGPLRALCLLGCLLSHAAAAPSPIIKFPGDVAPKTDKELAVQYLNTFYGCPKESCNLFVLKDTLKKMQKFFGLPQTGDLDQNTIETMRKPRCGNPDVANYNFFPRKPKWDKNQITYRIIGYTPDLDPETVDDAFARAFQVWSDVTPLRFSRIHDGEADIMINFGRWEHGDGYPFDGKDGLLAHAFAPGTGVGGDSHFDDDELWTLGEGQVVRVKYGNADGEYCKFPFLFNGKEYNSCTDTGRSDGFLWCSTTYNFEKDGKYGFCPHEALFTMGGNAEGQPCKFPFRFQGTSYDSCTTEGRTDGYRWCGTTEDYDRDKKYGFCPETAMSTVGGNSEGAPCVFPFTFLGNKYESCTSAGRSDGKMWCATTANYDDDRKWGFCPDQGYSLFLVAAHEFGHAMGLEHSQDPGALMAPIYTYTKNFRLSQDDIKGIQELYGASPDIDLGTGPTPTLGPVTPEICKQDIVFDGIAQIRGEIFFFKDRFIWRTVTPRDKPMGPLLVATFWPELPEKIDAVYEAPQEEKAVFFAGNEYWIYSASTLERGYPKPLTSLGLPPDVQRVDAAFNWSKNKKTYIFAGDKFWRYNEVKKKMDPGFPKLIADAWNAIPDNLDAVVDLQGGGHSYFFKGAYYLKLENQSLKSVKFGSIKSDWLGC
For B1, the “percentage of MMP-2-specific CD4+ T cells secreting IL-4, mean” value ([1]; 11 cord blood donors, 15 days after priming, after background subtraction) was 2.38%, the “IFNγ and IL-2 production compared to inactive MMP-2 or peptides” value ([1]; primed cells, 15 days) was “less” and the “production of IL-4 by basophils” value (human basophils; MMP-2 0.5 and 5 μg/mL) was “neither induced”. The “production of TSLP by basophils” value (human basophils; MMP-2 0.5 and 5 μg/mL, 16 h) was “neither induced” and the “expression of basophil activation marker CD203c” value (human basophils; PBMCs, 6 h) was “did not increase”.
